Values quoted from earlier work as cited in publication PMC6417862.

Biological target: muscle actin (Oryctolagus cuniculus) (UniProt P68135)

- Kd: < 300 nM
Substance: cofilin (from UniProt Q03048)
